# Data reported in the nanobody polyreactivity screen of Harvey et al. (2022).
# Test: yeast display, Sf9 membrane polyspecificity reagent, FACS + sequencing; frameworks hold sequencing errors
# Summary of the method: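 In a synthetic yeast display library (Saccharomyces cerevisiae BJ5465), nanobody expression was induced with galactose for 36–48 hours. FACS gates were set low and high (top ~1%) using anti-HA fluorescence for expression and streptavidin fluorescence for binding of the Sf9 membrane reagent. Each polyreactivity label is drawn from the gate of origin.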
row,Sequence,polyreactivity (PSR sort gate)
1,QVQLVESGGGLVQAGGSLRLSCAASGRTSYLYALGWYRQAPGKERELVAAISRGVGSTYYADSVKGRFTISRDNAKNTVYLQMHSLKPEDTAVYYCAAYRYTPWMYYWGQGTQVTVSS,high polyreactivity
2,QVHLEESVGGLLQAGGSLRLSCVASGSTFGAYAMGWYRQAPGKERELVAAINTGDSTNYADSVKGRFTISRDNAKNTVYFQMNSLKPVDTAVYYCAAVSKHSGDELDYWGQGTQVTVSS,high polyreactivity
3,QVQLVESGGGLVQAGGSLRLSCAASGRTFAYYTMGWYRQAPGKERELVDAISSRGGRTYYADSVKGRFTISRDNAKNTVYLQMNSLKPEDTAVYYCAAVSHGVYYQYRRRYYSWGQGTQVTVSS,high polyreactivity
4,QVQLVESGGGLVQAGGSLRLSCAASGGIFYTYAMGWSRQAPGKERELVAAISARGGSTYYADSVKGRFTISRDIAKNTVYLQMNSLKPDDTAVYYCAAETYILLEYDYWGQGTQVTVSS,high polyreactivity
5,QVQLVDSGGGLVQAGGSLRLSCAASGITIPSYTMGWYRQGPGKERELVATIRNGGSTYYADSVKGRFTISRDNAKNTVYLQMNSLIPEDTAVYYCAAVPLWDYIFFYYLLYDYWGQGTQVTVSS,low polyreactivity
6,QVQLVESGGGLVHAGGSLRLSCAASGRTFYAYAMGWYRQAPGKERELVAAISWRGGDTYYADSVKGRFTISRDNAKNTVYLQMNSVKPEVTAVYFCCADVYRYSVYLIRNPMDYWGQGTQVTVSS,low polyreactivity
7,QVQLVESGGGLVQAGGSLRLSCAASGNAMGWYRQAPGKERELVASINRSGGRTYFADSVKGRFTISRDNAKNTVYLQMNRLIPEDTAVYYCAKGPRGADLTHGAYVEMEYWGQGTQVTVSS,low polyreactivity
8,QVQLQESGGGLVQAGGSLLSCAASGTISWDDEMGWYLQAPGNERELVAGIAGGGNTNYADSVKGRFTISRDNAKNTVYLQMNSLDTAVYYCAVVGFGRGTHIYWGQGTQVTVSS,high polyreactivity
9,QVQLVESGGGLVQAGGSLRLSCAASGSIFAGNAMGWYRQAPGKERELVAAISWRGGSTYYADSVKGRFTISRDNAKNTVYLQMNSLKPEDTAVYYCAATWYDRRTFFYKYDYWGQGTQVTVSS,low polyreactivity
10,QVQLVESGGGLVQAGGSLRLSCAASGFIFTPYAMGWYRQAPGKEREFVATITWSGGSTNYADSVKGRFTISRDNAKNTVYLQMNSLKPEDTAVYYCNADTWSPNDYWGQGTQVTVSS,low polyreactivity
11,QVQLVESGGGLVQAGGSLRLSCAASGSIFPVNAMGLYRQAPGKERELVAAITASGDSTYYADSVKGRFTISRDNAKNTVYLQMNSLKPEDTAVYYCNADGSYENREVYSFYYWGQGTQVTVSS,low polyreactivity
12,QVQLVESGGGLVQAGGSLRLSCAASGRTFVYYDMGWSRPAPGKERELVAAIDSSGSTYYADSVKGRFTISRDNAKNTVYLQMNSLKPEDTAVYYCAAGYWFFPYWYDYWGQGTQVTVSS,high polyreactivity
13,QVQLVESGGGLVQAGGSLRISCAASGSNFTQYDMGWYRQAPGKERELVAAITSGGSTDYADSVKGRFTISRDNAKNTVYLQMNSLKPEDTAVYYCNAEAYPYWYRGASREYDYWGQGTQVTVSS,low polyreactivity
14,QVQLVESGGGLVQAGGSLRLSCAASGSTFGYYTMGWYRQEPVKETELVAAISYSGGRTFYADSVKGRFTISRDNAKNSVYLQMKSLKTEDTEVYYCNKRYIPSYLSHLDYWGQGTQVTVSS,high polyreactivity
15,QVQLVESGGGLVQAGGSLRLSCAASGITFVNYAMGWYRQAPGKERELVAAISNGGSTYYADSVKGRFTISRDNAKNTVYLQMNSLKPEDTAVYYCAAKPVQKFRPRYGYWGQGTQVTVSS,high polyreactivity
16,QVQLVESGGGLVQAGGSLRLICAASGASFFDKDMGWYRQAPGKERELVAAAITARGGSTYYADSVKGRFTISRDNAKNTVYLQMNSLKPEDTAVYYCAAGRPGELDYWGQGTQVTVSS,low polyreactivity
17,QVQLVESGGGLVQAGGSLRLSCAASGFTIGSYAMGWYRQAPGKEREFVAAIRRSGSSTYYADSVKGRFTISRDNAKNTVYLQMNSLKPEDTAVYYCAADVYRRLRRYRYYYWGQGTQVTVSS,low polyreactivity
18,QVQLVESGGGLVQAGGSLRLSCAASGSTFRTNAMGWYRQAPGKERELVADISKRGGNTYYADSVKGRFTISRDNAKNTVYLQMNCLKPEDTALYDCAAYRVYGYGGGYDYYYWVQGTQVTVSS,high polyreactivity
19,QVQLVESGGGLVQAGGSLRLSCAASGSTFWFNDMGWYRQAPGKEREFVAAISSIGGSTYYADSVKGRFTISRDNAKNNVNLQMNSLKPEDTAVYYCAVEVVRVYRYDYWGQGTQVTVSS,low polyreactivity
20,QVHLVESGGGLVQAGGSLRLSCAASGFIFHYNAMGWYRQAPGKERELVAAITSGDSTDYADSVKGRFTISRDNAKNTVYLQMNSLIPEDTAVYYCAAYHREGRRDDYWGQGTQVTVSS,low polyreactivity
21,QDQLVESGGGLVQAGGSLRLSCAASGNTFVSNAMGWYRQAPGKERELVAAIDSGGSTNYADSVKGRFTISRDNAKYTVYLQMNSLKPEDTAVYYCNRTSVYYYYWGQGTQVTVSS,low polyreactivity
22,QVKLVESGGGLVQAGGSLRLSCADSGFTFSSNGMCWYRPAPGKETELVAAITRRGGSTYYADSVKGRFTISRDNAKNTVYLQMNSLKPEDTAVYYCAKQLWDPKYDYWGQGTQVTVSS,high polyreactivity

row,Sequence,polyreactivity (PSR sort gate)
1,QVQLVESGGGIVQAGGSLRLSCAASGSIFSYNAMVWSRQAPGKQREFVAAIDGSDGSTYYADSVKGRFTISRDNAKNTVYLQMYSLKPEDTAVYSCAATDYDTYRSSWYDYWGQGTQVTVSS,low polyreactivity
2,QVQLVESGGGLVQAGGSLRLSCAASGITFQGNAMGWYRQAPGKERELVAAISSGGNTHYADSVKGRFTISRDNAKNTVYLQMNSLKPEDTAVYYCAASYYYTYYWGQGTQVTVSS,low polyreactivity
3,QVQLVESAGGLVQAGGSLSLSCAASGSIFIWYAMGWDRQAPGKERELVAAIRSGGSTYYADSVKGRFTISRDNAKNTVYLQMNSLKPEYTAVYYCAKVLTWRGYRYNYWGQGTQVTVSS,low polyreactivity
4,QVQLVESGGGLVQAGGSLRLSCAASGRIFTKYPMGRYRQATGKERELVAAITSGGRTYYADSVKGRFTISRDNAKNTVYLQMNSLKPEDTAVYFCAARYVQVVRKFGFRGQGTQVTVSS,high polyreactivity
5,QVQLVESGGGLVQAGGSLRLSCAASGFIFGTYAMGWYRQAPGKERELVAAISSGGSTYYADSVKGRFTISRDNAKNTVYLQMNSLKPEDTAVYYCAKEGGTYRIFNYWGQGTQVTVSS,low polyreactivity
6,QVHLVESGGGLVQAGGSLRLSCAASGSIFFGYTMGWYRQAPGKERELVAAITRRGGSTYYADSVKGRFTISRDNAKNTVYLQMNSLKPVDTAVYYCAAEVRRYVIVPYYYWGQGTQVTVSS,high polyreactivity
7,QVQRVESGGGLVQAGGCLRLSSAASGFIFRYNDMGWYRQAPGKERQLVATITGSGTSTYYADSVKGRFTISRDNAKTTVYLQMNSLKPEDTAVYYCAAVTSYWYWYVGYDYWGQGTQVTVSS,high polyreactivity
8,QVQLVESGGGLVQAGGSLRLSCAASGFTYFGYAMGWYRQAPGKERELVAAISTIDGDTYYADSVKGRFTISRDNAKNTVYLQMNSLKPEDTAVYYCAADDYIDGDDYWGQGTQVTVSS,low polyreactivity
9,QVQLVESGAGLVQAGGSLRLSCAASGSTFDAYALGWSRPAPGKERELVAGISSGGSYEFADSVKGRFTISRDYAKNTVYVQMNSLKPEDTAVYYCAADSRQSDYYYQPTKFDYWGQGTQVTVSS,low polyreactivity
10,QVQLVDSGGGLYQAGGSLSLTCAASGSIFDFNAMGWYRQAPGKERELVAAISGSGARTYYADSVKGRFTIARDNAKHTVYLQLNSLKPEDTAVYLCARPYVYGYDSWGQGTQVTFSS,high polyreactivity
11,QVQLVESGGGLVQAGGSLRLSCAASGRTFYRYAMGLYRQAPRKERELVASITRGTSTNYADSVKGRFTISRDNAKNTVYLQMNSLKPEDTAVYYCNRRIFGGQRMYYWGQGTQVTVSS,high polyreactivity
12,QVDLVASGGGLVQAGGSLRLSCAASGNIFANYAMGSYRQAPGKERELVAAIRWSASRTYYADSVKARFTISRDNAKNSVYFQLNSLKPEDTAVYYCAATIYTFWDYYYDYWGQGTQVTVSW,high polyreactivity
13,QVQLVESGGGLVQAGGSLRLSCAASGIIFDSYAMGWYRQAPGKERELVAAITSDSGRTYYADSVKGRFTISRDNAKKTVYLQMNSLKPEYTAVYYFAKRWDGPYDYWGQGTQVTVSS,low polyreactivity
14,QVQLVESGGPLVQAGGSLRLSCAASGRTIRYYTMGWYRQAPGKEREFVAAITSTGGTYYADSVKGRFTSSRDNAKNTVYLQRTSLKQEDTGVYYCAATFIQFVVNVQLYDYDYWGQGTQVTVSS,low polyreactivity
15,QVQLVESGGGLVQAGGRLRLICAASGSILNNYAMGWYRQAPGKERELVAAISSSGGTNYADSVKGRFTISRDNAKNTVYLQMNSLKPEDTAVYYCNADVLDGGYDYWGQGTQVTVSS,low polyreactivity
16,QVQLVESGGGLVQAGGSLRLICAASGSTFDQNVMGWYRQAPGKDRELVGTINFSGDSTYYADSVKGRFTISRDNAKNTVYLQMNSLKPEDPAVYYCAVDWGEYIDTSVKRDISYYWGQGTQVTVSS,low polyreactivity
17,QVQLVESGGGLVQAGGSLRLSCAASGGIFYDNAMGWYRQARGKEWELVAAINWSGGSTYYADSVKGRFTISRDNAKNTVYLQMNSLKPDDTAVYYCAASRYFYRTYWNFYGMDYSGQGTQVTVSS,high polyreactivity
18,QVQLVESGGGLVQAGGSLRLSCAASGFTFDSYDMGWYRQAPGKERELVAAISKSGGTTYYADSLKGRFTISRDNANNTVYLQMNSLKPEDTAVFYCAAGGPRGGYGRYYYWGPGTQVTVSS,high polyreactivity
19,QVQLVESGGGLVQAGGSLRLSCAASGSTFWYYAMGWSRQAPGKERELVADITYSGVSTYYADSVKGRFTISRDNAKNTVYLQMNSLKPEDTAVYYCNAVWGSVKGYSGYYYWGPGTQVTVSS,low polyreactivity
20,QVQLVESGGGLVQAGGSLRLSCAASGSTFVTYAMGRYRQAPGKERELVAAISSAGSTNYADSVKGRFTISRDNAKNTVYLQMNSLKPEDTAVYYCARDIQDTYEFDYWGQGTQVTVSS,low polyreactivity
21,QVQLVESGGGLVQAGGSLRLSCAASGSTFFKYAMGWYRPAPRKERELVAAISYSGGSTYYADSVKGRFTISRDNAKNTVYLQMNSLKPEDTAVYYCAARVQNRYRPYYYWGQGTQVTVSS,high polyreactivity
